Data as given in patent publication US6475775B1, “PARG, a GTPase activating protein which interacts with PTPL1” (Ludwig Institute for Cancer Research, priority 1997, dated 2002).

Legend:
[1] = molecular target: T1, GST-PDZ 4-5 of PTPL1 (Homo sapiens, UniProt Q12923); assay: Binding of GST-PDZ fusion proteins to C-terminal PARG peptide; settings: peptide on Affigel 15 beads; 50 nM fusion protein; 4° C., 2 h; α-GST immunoblot
T1 construct: GST-PDZ 4-5, residues 1762-1960; made in house; host or cells: E. coli
T1 sequence (Q12923 1762-1960 isoform Q12923-3): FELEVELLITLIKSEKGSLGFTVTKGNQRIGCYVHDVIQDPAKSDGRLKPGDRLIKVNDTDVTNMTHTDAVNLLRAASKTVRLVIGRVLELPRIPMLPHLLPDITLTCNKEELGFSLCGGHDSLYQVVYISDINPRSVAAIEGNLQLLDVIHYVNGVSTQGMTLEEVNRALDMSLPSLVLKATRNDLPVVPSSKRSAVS
Excerpt: (§1) To identify proteins that bind to the PDZ domains of PTPL1, regions of PTPL1 cDNA corresponding to the various PDZ domains were produced by polymerase chain reaction and subcloned into the GST fusion protein expression vector pGEX1λT (Pharmacia): GST-PDZ 1. amino acid residues 1066-1166 of PTPL1; GST-PDZ 2-3. residues 1340-1579; GST-PDZ 3, residues 1469-1579; GST-PDZ 4, residues 1762-1864; GST-PDZ 4-5, residues 1762-1960 and GST-PDZ 5, residues 1856-1960 (FIG. 1A). Domains and motifs indicated in FIG. 1A are: L, leucine zipper motif; Band 4.1, a domain of 300 amino acid residues with homology to the Band 4.1 superfamily; P, PDZ domain; PTP, protein tyrosine phosphatase catalytic domain; GST, glutathione S-transferase. The different expression vector constructs were transformed into E. coli. Glutathione S-transferase (GST) fusion proteins were produced and purified as described by Ridley and Hall (Cell 70: 389-399, 1992) and then subjected to sodium dodecyl sulfate (SDS)-gel electrophoresis.
(§2) It has been shown that PDZ domains interact with the C-terminal ends of short peptides and that a valine residue at the absolute C-terminal end is important for binding (Kim et al., 1995; Komau et al., 1995; Saras et al., in preparation). […]

[2] = molecular target: T2, PDZ 4 of PTPL1 (GST-PDZ 4) (Homo sapiens, UniProt Q12923); assay: as above; settings: peptide on Affigel 15 beads; 50 nM fusion protein; 4° C., 2 h; α-GST immunoblot
T2 construct: GST-PDZ 4, residues 1762-1864; made in house; host or cells: E. coli
T2 sequence (Q12923 1762-1864 isoform Q12923-3): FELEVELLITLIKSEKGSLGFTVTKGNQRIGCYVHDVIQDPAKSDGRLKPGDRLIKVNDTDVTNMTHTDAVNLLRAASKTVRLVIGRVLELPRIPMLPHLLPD
Excerpt: as §1, §2

[3] = molecular target: T3, Rho (Homo sapiens, UniProt P61586); assay: GAP activity of PARG GAP domain (GTP hydrolysis, filter binding); type: biochemical; settings: 1 nM GST-GAP; Rho preloaded with γ-32P-GTP; 30° C.
T3 construct: GST (N, cleaved yes); made in house; host or cells: E. coli
T3 sequence (P61586 whole entry, the tested form may be a part): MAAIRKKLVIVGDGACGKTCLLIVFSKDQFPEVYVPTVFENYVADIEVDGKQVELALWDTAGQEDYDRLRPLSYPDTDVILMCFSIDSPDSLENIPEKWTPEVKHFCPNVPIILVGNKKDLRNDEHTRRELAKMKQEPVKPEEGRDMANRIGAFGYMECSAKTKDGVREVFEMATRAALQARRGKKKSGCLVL
Excerpt: (§3) In order to determine the GAP activity of PARG on proteins of the Rho family, the GAP domain of PARG was produced as a GST fusion protein in E. coli (FIG. 5A). Briefly, a DNA fragment coding for the GAP domain, i.e., amino acid residues 658-898, of PARG was produced by polymerase chain reaction and subcloned into pGEX1λT and referred to as GST-GAP. pGEX2T-based expression vectors containing RhoA, Rac1 and Cdc42 (G25K isoform) cDNAs were obtained from Dr. A. Hall (MRC Laboratory for Molecular Cell Biology and Department of Biochemistry, University College London, UK). These different expression vector constructs were transformed into E. coli. The GST fusion proteins were produced and purified essentially as described above in Example 1. Recombinant Rho, Rac and Cdc42 proteins were subjected to thrombin cleavage (Ridley and Hall, 1992).
(§4) Recombinant Rho, Rac and Cdc42 were preloaded with γ-^32P-GTP and incubated for various time periods in the presence of the GST-GAP fusion protein or, as control, GST protein. Thereafter, the radioactivity bound to the GTPase was determined as a measurement of the GTP hydrolysis activity. Briefly, 200 nM aliquots of recombinant Rho, Rac and Cdc42 were incubated at 30° C. with 10 μCi γ-^32P-GTP in 20 mM Tris-HCI, pH 7.5, 25 mM NaCl, 4 mM EDTA, 0.1 mM dithiothreitol, and the nucleotide exchange was stopped after 10 min by the addition of 17 mM MgCl2. Proteins (100 nM GST, 1 nM or 20 nM of GST-GAP fusion protein) were added to the reaction mixture and aliquots of 5 μl were withdrawn and collected on nitrocellulose filters (HA, Millipore, Bedford, Mass.) at 3 min intervals. The filters were washed with cold buffer (50 mM Tris-HCI pH 7.5, 50 mM NaCl, 5 mM MgCl2), dried and subjected to scintillation counting. The amount of protein-bound radioactivity is expressed as the percentage of the total input.

[4] = molecular target: T4, Rac (Homo sapiens, UniProt P63000); assay: as above; type: biochemical; settings: Rac preloaded with γ-32P-GTP, 30° C.
T4 construct: GST (N, cleaved yes); made in house; host or cells: E. coli
Excerpt: as §3, §4

[5] = molecular target: T5, Cdc42 (Homo sapiens, UniProt P60953); assay: as above; type: biochemical; settings: Cdc42 preloaded with γ-32P-GTP, 30° C.
T5 construct: GST (N, cleaved yes); made in house; host or cells: E. coli
T5 sequence (P60953 1-191 isoform P60953-1): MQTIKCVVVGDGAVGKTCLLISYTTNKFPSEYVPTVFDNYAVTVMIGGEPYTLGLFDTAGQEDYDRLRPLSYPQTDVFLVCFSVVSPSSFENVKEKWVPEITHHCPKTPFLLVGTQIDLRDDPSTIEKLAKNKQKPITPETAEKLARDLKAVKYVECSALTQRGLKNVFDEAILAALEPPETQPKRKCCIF
Excerpt: as §3, §4

PQFV (listed as Homo sapiens) [synthetic peptide, last 4 C-terminal amino acid residues of PARG]
binding of GST-PDZ 4-5 to the peptide [1]: bound
binding of GST-PDZ 4 to the peptide [2]: bound

B1: GST-GAP fusion protein: GAP domain, amino acid residues 658-898 of PARG, produced as a GST fusion protein in E. coli (protein)
chain: GHQKLPGKIHLFGAEFTLVAKKEPDGIPFILKICASEIENRALCLQGIYRVCGNKIKTEKLCLALENGMHLVDISEFSSHDICDVLKLYLRQLPEPFILFRLYKEFIDLAKEIQHVNEEQETKKNSLEDKKWPNMCIEINRILLKSKDLLRQLPASNFNSLHFLIVHLKRVVDHAEENKMNSKNLGVIFGPSLIRPRPQTAPITISSLAEYSNQARLVEFLITYSQKIFDGSLQPQDVMCS
modifications: left off: a dimerising Fc or GST
notes: GAP domain, amino acid residues 658-898 of PARG, produced as a GST fusion protein in E. coli
GAP activity on Rho [3]: strong GAP activity
GAP activity on Rac ([4]; 1 nM GST-GAP): no GAP activity
GAP activity on Rac ([4]; 20 nM GST-GAP): active
GAP activity on Cdc42 ([5]; 1 nM GST-GAP): no GAP activity
GAP activity on Cdc42 ([5]; 20 nM GST-GAP): active
